Data from patent publication US20240400722A1, “Chemically Inducible Heterodimerizing System and A Method For Generation Thereof” (Miltenyi Biotec B.V. & Co. KG, priority 2023, published 2024).
Substitutions are numbered along the chain they refer to. In names and notes the source's numbering stands. Entries after “also recorded” stand apart in the source; their conditions may differ.

Key:
[1] = Preparative size exclusion chromatography of acVHH variants; assay type: physicochemical; details: HiLoad Superdex 75 pg, elution in PBS
Protocol: Protein aggregates were removed via preparative size exclusion chromatography (SEC). The samples were first centrifuged at 16 000 rpm for 3 min to remove large aggregates and the supernatant was loaded onto a HiLoad Superdex 75 pg column connected to a Bio-Rad NG-C chromatography system. Elution was performed in PBS and the fractions containing proteins based on absorbance at 280 nm were pooled, concentrated as mentioned above and stored at −30° C.

acVHH-V104D [2] = assay: NanoBiT protein complementation assay in Jurkat T cells, intracellular binding to acVHH-V104D; assay type: cell-based, llama; details: for background signal at very low concentrations of caffeine / background signal in the absence of caffeine: compared with acVHH-WT/acVHH-WT homodimers
Text: (§1) The ac VHH variants were N-terminally fused to an extracellular globular domain used to assess expression, as well as a transmembrane domain, and C-terminally fused to a subunit of the split NanoLuc (NanoBiT® system), Promega. Thus, the resulting fusion protein consisted of an extracellular globular domain, followed by a transmembrane domain and intracellular ac VHH variants followed by a subunit of split NanoLuc luciferase.
The different chains built were as follows: the first polypeptide chain comprised truncated EGFR extracellular and transmembrane domain, followed by a 2×G4S linker and cither ac VHH-V104D or ac VHH-WT, followed by a linker (SEQ ID NO:31) and 11S NanoBiT® “Large BiT”, whereas the second polypeptide chain comprised truncated HER2 extracellular and transmembrane domain, followed by a linker (SEQ ID NO:32) and either ac VHH-V104D or ac VHH-WT or ac VHH-M1 or acVHH-M2 or dfM1-1 or dfM1-2, followed by a linker (SEQ ID NO:33) and 114 NanoBiT® “Small BiT”. The sequence of the truncated HER2 extracellular and transmembrane domain involved the amino acids at positions 339-683 according to the deposited Uniprot sequence (ID P04626). The sequence of the truncated EGFR extracellular and transmembrane domain involved the amino acids at positions 334-675 according to the deposited Uniprot sequence (ID P00533). The principle of the assay is as follows: upon binding of (i.e. dimerization) of the respective ac VHH variants, the fused NanoLuc luciferase subunits are brought into close proximity (the two subunits being fused to the two different polypeptide chains, respectively), thus resulting in a functional luciferase enzyme, whose activity can be measured.
In vitro transcription was performed with 200 ng of purified PCR product using the mMessage mMachine T7 Ultra Kit (Ambion) according to the manufacturer's instructions. The resulting mRNAs were column purified with the RNeasy Kit (Qiagen), aliquoted to 5 μg and frozen at −80° C. until electroporation. Jurkat T cells were electroporated with 5 μg mRNA per chain (10 μg mRNA total) using the Gene Pulser (Bio-Rad) and the following parameters: square wave protocol, 500 V, 5 ms, 4 mm cuvettes.
Intracellular function of the dimers was assessed with the Nano-Glo® Luciferase Assay System (Promega).

acVHH-V104D [3] = assay: Yeast surface display binding of acVHH variants to soluble acVHH-V104D; set-up: species or system llama; details: for background binding signal in the absence of any small molecule: 500 nM soluble acVHH-V104D, buffer only (control, PBSA); for affinity towards acVHH-V104D: summary statement, interaction dependent on caffeine; for affinity (KD) to acVHH-V104D: titration with soluble acVHH-V104D in the presence of 30 μM caffeine; for dependency of heterodimerization with acVHH-V104D on the presence of caffeine: yeast display flow cytometry, with or without caffeine
Protocol: The staining for flow cytometry characterization was performed in PBSA (PBS containing 15 μM bovine serum albumin). […] In addition, controls with buffer only (containing neither an ac VHH variant nor caffeine) were included. After a washing step the cells were stained for 20 min at 4° C. and shaking with either streptavidin-Alexa Fluor 647 (Invitrogen) or Penta-His-Alexa Fluor 647 (Qiagen) to assess acVHH-V104D or acVHH-WT binding, as well as anti-HA-Alexa Fluor 488 (clone 16B12, Biolegend) or anti-c-myc AlexaFluor 488 (9E10, Thermofisher) to assess display (anti-HA) or full-length display (anti-c-myc) of the acVHH variants, respectively. After a final washing step, the cells were analyzed with a CytoFLEX S flow cytometer (Beckman Coulter).
Expression of the acVHH variants on yeast was induced by culturing the cells in SG-CAA medium (20 g/L galactose, 2 g/L glucose, 6.7 g/L yeast nitrogen base, 5 g/L bacto casamino acids, 10.2 g/L Na2HPO4*7 H2O, 8.56 g/L NaH2PO4*H2O) overnight at 20° C. and 180 rpm. Detection of full-length proteins on the surface of the cells was carried out by staining the cells with anti-c-myc AlexaFluor 488 (9E10, Thermo Fisher). […] After a washing step with PBSA, they were stained with an anti-HA-Alexa Fluor 488 (BioLegend) to gate for displaying yeast cells and the geometric mean fluorescence intensity (gMFI) of binding to acVHH-V104D, detected by co-staining with a Penta-His-Alexa Fluor 647 (Qiagen) (recognizing the His-tag on acVHH-V104D) was measured.
Expression of the variants on yeast was carried out in SG-CAA as described above. Full length display was assessed by staining with an anti-c-myc AlexaFluor 488 (9E10, Thermo Fisher) and binding to soluble acVHH-V104D was assessed by staining with Penta-His-Alexa Fluor 647 (Qiagen).
56 clones of the library were sequenced as explained in Example 2. Only 2 variants were obtained, namely dfM1-1 and dfM1-2. Their binding and affinity to soluble acVHH-V104D as well as full length display was assessed with yeast surface display as described in Example 2.

acVHH-WT = assay: NanoBiT protein complementation assay in Jurkat T cells, acVHH-WT homodimer; assay type: cell-based, llama
Text: as §1
The different chains built were as follows: the first polypeptide chain comprised truncated EGFR extracellular and transmembrane domain, followed by a 2×G4S linker and cither ac VHH-V104D or ac VHH-WT, followed by a linker (SEQ ID NO:31) and 11S NanoBiT® “Large BiT”, whereas the second polypeptide chain comprised truncated HER2 extracellular and transmembrane domain, followed by a linker (SEQ ID NO:32) and either ac VHH-V104D or ac VHH-WT or ac VHH-M1 or acVHH-M2 or dfM1-1 or dfM1-2, followed by a linker (SEQ ID NO:33) and 114 NanoBiT® “Small BiT”. […] The principle of the assay is as follows: upon binding of (i.e. dimerization) of the respective ac VHH variants, the fused NanoLuc luciferase subunits are brought into close proximity (the two subunits being fused to the two different polypeptide chains, respectively), thus resulting in a functional luciferase enzyme, whose activity can be measured. […]

[4] = +/- 30 μM caffeine, normalized to acVHH-WT homodimer with caffeine
[5] = increasing concentrations of caffeine

B1: acVHH-V104D: acVHH-WT variant with point mutation V104D, SEQ ID NO:2; first antigen binding domain AB1 (protein)
VHH: QVQLVESGGGLVQAGGSLRLSCTASGRTGTIYSMAWFRQAPGKEREFLATVGWSSGITYYMDSVKGRFTISRDKGKNTVYLQMDSLKPEDTAVYYCTATRAYSDGYDYWGQGTQVTVSS
With B1 the “preparative SEC profile” value [1] was “monomeric profile; also recorded: elutes as a defined monomeric peak”, the “intracellular binding with acVHH-V104D” value (acVHH-V104D [2]; [4]) was “does not show any detectable homodimerization” and the “intracellular binding with acVHH-V104D” value (acVHH-V104D [2]; [5]) was “does not show any detectable homodimerization”.

B2: acVHH-M1 (protein)
chain: B1 VHH with T50P, G52A, W53L, S54G, S55L, G56Q, I57S, D104V
modifications: left off: large carriers; small tags and cut ends
With B2 the “background binding signal in the absence of any small molecule” value (from here on “background binding signal in the absence”) (acVHH-V104D [3]) was “virtual absence of any background signal; also recorded: does not trigger any detectable signal”, the “affinity towards acVHH-V104D” value (acVHH-V104D [3]) was “high affinity in the nanomolar range” and the “affinity (KD) to acVHH-V104D” value (acVHH-V104D [3]) was “low nM range”. The “dependency of heterodimerization with acVHH-V104D on the presence of caffeine” value (acVHH-V104D [3]) was “clear dependency”, the “intracellular binding with acVHH-V104D” value (acVHH-V104D [2]; [4]) was “weak” and the “background signal at very low concentrations of caffeine” value (acVHH-V104D [2]) was “strongly reduced”. For the same molecule, the “background signal in the absence of caffeine” value (acVHH-V104D [2]) was “strongly reduced”.

B3: acVHH-M2 (protein)
chain: B1 VHH with T50Q, V51Q, G52R, S54L, S55F, G56R, I57R, D104V
modifications: left off: large carriers; small tags and cut ends
With B3 the “background binding signal in the absence” value (acVHH-V104D [3]) was “virtual absence of any background signal”, the “affinity towards acVHH-V104D” value (acVHH-V104D [3]) was “high affinity in the nanomolar range” and the “dependency of heterodimerization with acVHH-V104D on the presence of caffeine” value (acVHH-V104D [3]) was “clear dependency”. The “intracellular binding with acVHH-V104D” value (acVHH-V104D [2]; [4]) was “not detectable” and the “background signal in the absence of caffeine” value (acVHH-V104D [2]) was “strongly reduced”.

B4: acVHH-WT: existing thermally stable caffeine-specific single domain antibody fragment from llama used for homodimerization, SEQ ID NO:1 (protein)
VHH: B1 VHH with D104V
In the case of B4, the “intracellular binding with acVHH-V104D” value (acVHH-V104D [2]; [5]) is reported as “very weak heterodimerization”, the “intracellular homodimerization of acVHH-WT” value (acVHH-WT; +/- 30 μM caffeine) is reported as “shows homodimerization, which is enhanced by addition of caffeine” and the “intracellular homodimerization of acVHH-WT” value (acVHH-WT; [5]) is reported as “shows homodimerization, which is enhanced by addition of caffeine”.

B5: dfM1-1 (protein)
chain: QVQLVESGGGLVQAGGSLRLSATAYGKTGTIYSMAWFRQAPGKEREFLAPVALGLQSTYYMDSVKGRFTISRDKGKNTVYLQMDSLKPEDTAVYYAAATRAYSVGYDYWGQGTQVTVTS
modifications: left off: large carriers; small tags and cut ends
In the case of B5, the “background binding signal in the absence” value (acVHH-V104D [3]) is reported as “does not trigger any detectable signal”, the “affinity towards acVHH-V104D” value (acVHH-V104D [3]) is reported as “high affinity in the nanomolar range” and the “affinity (KD) to acVHH-V104D” value (acVHH-V104D [3]) is reported as “low nM range”. The “intracellular binding with acVHH-V104D” value (acVHH-V104D [2]; [4]) was “efficient heterodimerization”, the “background signal at very low concentrations of caffeine” value (acVHH-V104D [2]) was “strongly reduced” and the “background signal in the absence of caffeine” value (acVHH-V104D [2]) was “strongly reduced”.

B6: dfM1-2 (protein)
chain: B5 chain with Q1E, K27R, T118S
modifications: left off: large carriers; small tags and cut ends
For B6, the “background binding signal in the absence” value (acVHH-V104D [3]) was “does not trigger any detectable signal”, the “affinity towards acVHH-V104D” value (acVHH-V104D [3]) was “high affinity in the nanomolar range” and the “affinity (KD) to acVHH-V104D” value (acVHH-V104D [3]) was “low nM range”. For the same molecule, the “intracellular binding with acVHH-V104D” value (acVHH-V104D [2]; [4]) was “efficient heterodimerization”, the “background signal at very low concentrations of caffeine” value (acVHH-V104D [2]) was “strongly reduced” and the “background signal in the absence of caffeine” value (acVHH-V104D [2]) was “strongly reduced”.
